This data set deals with DNMT1 (Mus musculus) (UniProt P13864). As to conditions: 5mC and 5hmC on top strand only, SAM, 37 C, 4 h.

3 substances from patent US10023909 can be followed below.

Like-named read-outs stand apart in the source and are kept apart here.

Sequence of UniProt P13864 (P13864 other isoform, or with tags, fused parts or gaps): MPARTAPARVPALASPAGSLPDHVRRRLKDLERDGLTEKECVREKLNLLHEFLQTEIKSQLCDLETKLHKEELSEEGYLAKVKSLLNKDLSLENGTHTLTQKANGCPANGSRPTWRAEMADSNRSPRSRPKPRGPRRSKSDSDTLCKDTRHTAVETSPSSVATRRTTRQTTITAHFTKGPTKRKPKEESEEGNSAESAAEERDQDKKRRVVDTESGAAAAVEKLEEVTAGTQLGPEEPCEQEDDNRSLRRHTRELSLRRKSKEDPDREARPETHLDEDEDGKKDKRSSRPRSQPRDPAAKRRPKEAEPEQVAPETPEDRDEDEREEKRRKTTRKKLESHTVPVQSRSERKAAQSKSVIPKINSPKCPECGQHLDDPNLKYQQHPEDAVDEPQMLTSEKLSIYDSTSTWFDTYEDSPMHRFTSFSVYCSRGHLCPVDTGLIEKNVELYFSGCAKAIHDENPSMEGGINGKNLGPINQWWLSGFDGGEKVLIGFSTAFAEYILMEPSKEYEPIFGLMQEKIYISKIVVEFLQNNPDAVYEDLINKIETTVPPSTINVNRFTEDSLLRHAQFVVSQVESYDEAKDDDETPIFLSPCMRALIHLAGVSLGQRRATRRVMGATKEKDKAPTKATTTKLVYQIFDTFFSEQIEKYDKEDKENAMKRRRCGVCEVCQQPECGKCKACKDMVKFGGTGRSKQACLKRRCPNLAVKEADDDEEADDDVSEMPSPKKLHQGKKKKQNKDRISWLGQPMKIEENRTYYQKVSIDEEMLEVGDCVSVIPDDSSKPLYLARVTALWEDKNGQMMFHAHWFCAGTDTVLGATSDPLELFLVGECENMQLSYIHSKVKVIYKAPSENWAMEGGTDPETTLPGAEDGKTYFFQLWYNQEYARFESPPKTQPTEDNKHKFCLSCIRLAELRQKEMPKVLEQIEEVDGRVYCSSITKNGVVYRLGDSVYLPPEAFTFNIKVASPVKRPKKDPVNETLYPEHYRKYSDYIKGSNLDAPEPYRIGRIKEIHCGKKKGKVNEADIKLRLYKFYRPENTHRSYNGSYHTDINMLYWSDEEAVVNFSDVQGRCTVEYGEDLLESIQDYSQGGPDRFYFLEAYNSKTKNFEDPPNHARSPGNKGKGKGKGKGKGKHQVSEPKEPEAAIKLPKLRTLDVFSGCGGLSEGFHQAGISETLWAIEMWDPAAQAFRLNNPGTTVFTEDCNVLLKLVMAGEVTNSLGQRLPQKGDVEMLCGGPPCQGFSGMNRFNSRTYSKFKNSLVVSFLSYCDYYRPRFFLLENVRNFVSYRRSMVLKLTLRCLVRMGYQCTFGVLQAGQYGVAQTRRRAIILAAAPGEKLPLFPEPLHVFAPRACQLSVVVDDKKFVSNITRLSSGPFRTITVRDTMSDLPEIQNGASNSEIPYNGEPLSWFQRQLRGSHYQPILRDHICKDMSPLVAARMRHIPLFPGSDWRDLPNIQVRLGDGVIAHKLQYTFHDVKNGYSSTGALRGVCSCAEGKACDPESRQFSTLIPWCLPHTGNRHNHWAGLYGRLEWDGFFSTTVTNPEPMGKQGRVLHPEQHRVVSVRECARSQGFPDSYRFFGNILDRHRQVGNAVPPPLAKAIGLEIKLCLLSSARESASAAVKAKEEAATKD

“112 bp 5hmC:C:5meC top/unmodified bottom duplex, unmodified CpG site” registered an activity (no methylation by bisulfite sequencing) of 0%. The substance “112 bp 5hmC:C:5meC top/unmodified bottom duplex, hemi-5meC CpG site” showed an activity (methylation by bisulfite sequencing (14 of 16 clones)) of 87.5%. In turn, “112 bp 5hmC:C:5meC top/unmodified bottom duplex, hemi-5hmC CpG site” yielded an activity (no methylation across from 5hmC) of 0%.
